Assay results from article doi:10.1101/2025.02.14.638310 (bioRxiv, 2025).

How the values were obtained:
[1] = target: T1, Pfs230D7 (recombinant, WT) (Plasmodium falciparum 3D7, UniProt P68874); test: SPR; conditions: both partners purified
T1 construct: source: wheat germ cell-free extract WEPRO7240H with Disulfide Bond Enhancer Enzyme Set, purified (Ni Sepharose 6 Fast Flow)

[2] = target: T2, Pfs230 fused C-terminally with a 3xFLAG-C-tag (endogenous, parasite line iGP2^230-tag) (Plasmodium falciparum (endogenous in …, UniProt P68874)); test: native gel or EMSA; conditions: both partners purified
T2 construct: not shown: 3xFLAG, C-terminal, kept

[3] = target: T3, Pfs230:Pfs48/45 complex (endogenous, FLAG-tag purified) (Plasmodium falciparum (isolate 3D7)., UniProt P68874;Q8I6T1); test: native gel or EMSA; conditions: both partners purified
T3 construct: not shown: 3xFLAG, C-terminal, kept
T3 sequence (P68874 21-3135, one chain of several): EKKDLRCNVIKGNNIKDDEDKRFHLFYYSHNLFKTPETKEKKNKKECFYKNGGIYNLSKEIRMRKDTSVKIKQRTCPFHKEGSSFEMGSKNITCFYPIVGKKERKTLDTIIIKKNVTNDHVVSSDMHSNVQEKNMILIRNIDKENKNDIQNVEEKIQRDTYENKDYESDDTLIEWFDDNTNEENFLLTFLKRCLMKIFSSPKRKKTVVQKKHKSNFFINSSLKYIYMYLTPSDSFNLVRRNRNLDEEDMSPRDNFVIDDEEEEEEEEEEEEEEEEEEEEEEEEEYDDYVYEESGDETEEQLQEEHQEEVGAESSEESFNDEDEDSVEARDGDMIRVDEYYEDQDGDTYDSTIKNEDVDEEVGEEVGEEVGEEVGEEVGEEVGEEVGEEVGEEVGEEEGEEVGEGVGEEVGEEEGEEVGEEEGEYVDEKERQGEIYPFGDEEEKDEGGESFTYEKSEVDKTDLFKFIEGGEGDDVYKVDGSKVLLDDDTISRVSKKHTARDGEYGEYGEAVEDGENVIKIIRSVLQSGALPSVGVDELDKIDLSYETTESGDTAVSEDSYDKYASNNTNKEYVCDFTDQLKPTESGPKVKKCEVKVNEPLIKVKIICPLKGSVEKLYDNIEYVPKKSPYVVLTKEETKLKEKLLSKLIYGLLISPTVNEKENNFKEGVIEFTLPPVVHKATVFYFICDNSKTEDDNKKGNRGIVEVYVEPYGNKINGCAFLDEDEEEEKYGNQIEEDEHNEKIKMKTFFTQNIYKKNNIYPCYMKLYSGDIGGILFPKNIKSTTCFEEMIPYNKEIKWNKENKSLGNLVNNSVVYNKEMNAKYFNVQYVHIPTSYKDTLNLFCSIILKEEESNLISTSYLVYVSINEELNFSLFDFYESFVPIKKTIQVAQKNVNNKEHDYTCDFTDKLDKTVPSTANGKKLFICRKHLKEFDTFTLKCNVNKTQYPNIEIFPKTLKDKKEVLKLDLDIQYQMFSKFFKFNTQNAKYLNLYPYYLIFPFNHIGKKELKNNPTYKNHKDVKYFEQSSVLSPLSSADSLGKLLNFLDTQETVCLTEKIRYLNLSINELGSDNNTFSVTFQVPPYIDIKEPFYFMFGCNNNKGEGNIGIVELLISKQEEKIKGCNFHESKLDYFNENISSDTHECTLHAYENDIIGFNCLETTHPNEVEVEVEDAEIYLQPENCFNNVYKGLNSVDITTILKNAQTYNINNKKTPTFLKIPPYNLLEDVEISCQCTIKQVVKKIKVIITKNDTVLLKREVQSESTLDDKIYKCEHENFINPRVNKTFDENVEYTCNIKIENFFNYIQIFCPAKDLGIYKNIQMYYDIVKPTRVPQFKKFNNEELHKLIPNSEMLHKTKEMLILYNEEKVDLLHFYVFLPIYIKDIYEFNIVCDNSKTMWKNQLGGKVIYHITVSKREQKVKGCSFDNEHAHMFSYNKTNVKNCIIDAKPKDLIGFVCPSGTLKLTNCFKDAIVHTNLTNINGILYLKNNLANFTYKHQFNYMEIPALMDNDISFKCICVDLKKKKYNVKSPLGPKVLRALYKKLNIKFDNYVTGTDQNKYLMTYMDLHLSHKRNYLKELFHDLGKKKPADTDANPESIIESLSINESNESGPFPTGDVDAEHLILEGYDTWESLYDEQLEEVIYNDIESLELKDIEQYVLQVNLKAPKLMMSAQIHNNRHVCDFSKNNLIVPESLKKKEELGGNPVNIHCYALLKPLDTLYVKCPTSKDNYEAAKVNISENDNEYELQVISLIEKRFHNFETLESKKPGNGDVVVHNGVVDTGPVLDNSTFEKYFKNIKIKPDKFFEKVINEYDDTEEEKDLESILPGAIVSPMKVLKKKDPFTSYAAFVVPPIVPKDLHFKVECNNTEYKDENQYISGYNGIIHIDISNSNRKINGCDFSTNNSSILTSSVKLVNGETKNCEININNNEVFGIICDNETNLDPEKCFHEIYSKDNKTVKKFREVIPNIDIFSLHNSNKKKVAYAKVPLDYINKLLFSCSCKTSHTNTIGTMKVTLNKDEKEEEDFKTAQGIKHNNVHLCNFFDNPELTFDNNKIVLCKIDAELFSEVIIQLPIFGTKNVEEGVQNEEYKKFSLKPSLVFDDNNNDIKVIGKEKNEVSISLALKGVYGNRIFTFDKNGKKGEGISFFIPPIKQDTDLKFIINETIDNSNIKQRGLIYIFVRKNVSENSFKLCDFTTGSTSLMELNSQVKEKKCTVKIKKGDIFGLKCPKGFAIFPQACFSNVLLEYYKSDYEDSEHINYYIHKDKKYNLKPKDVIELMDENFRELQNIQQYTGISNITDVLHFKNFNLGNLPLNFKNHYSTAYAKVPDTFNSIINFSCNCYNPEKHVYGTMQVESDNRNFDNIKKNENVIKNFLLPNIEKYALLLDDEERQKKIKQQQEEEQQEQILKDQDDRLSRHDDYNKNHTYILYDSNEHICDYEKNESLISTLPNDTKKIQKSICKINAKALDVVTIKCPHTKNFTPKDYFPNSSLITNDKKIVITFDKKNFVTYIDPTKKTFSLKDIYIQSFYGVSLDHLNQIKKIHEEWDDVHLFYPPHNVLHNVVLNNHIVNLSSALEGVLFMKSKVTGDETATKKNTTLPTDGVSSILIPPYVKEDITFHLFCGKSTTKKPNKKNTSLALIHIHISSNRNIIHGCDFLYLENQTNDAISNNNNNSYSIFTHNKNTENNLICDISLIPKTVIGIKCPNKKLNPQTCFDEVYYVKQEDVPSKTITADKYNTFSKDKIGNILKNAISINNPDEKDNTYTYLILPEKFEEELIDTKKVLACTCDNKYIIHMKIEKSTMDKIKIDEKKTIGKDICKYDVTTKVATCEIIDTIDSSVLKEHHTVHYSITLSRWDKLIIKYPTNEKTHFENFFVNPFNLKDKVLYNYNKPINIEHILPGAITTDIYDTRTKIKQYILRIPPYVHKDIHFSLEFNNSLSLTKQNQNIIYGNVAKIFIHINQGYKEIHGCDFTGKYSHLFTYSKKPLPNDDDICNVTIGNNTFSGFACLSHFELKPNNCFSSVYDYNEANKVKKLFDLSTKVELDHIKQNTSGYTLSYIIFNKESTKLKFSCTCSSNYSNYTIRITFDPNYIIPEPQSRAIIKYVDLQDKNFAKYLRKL

[4] = target: Pfs48/45 (endogenous) (Plasmodium falciparum (endogenous in …, UniProt Q8I6T1)); test: cryo-EM structure; conditions: both partners purified
[5] = target: T4, Pfs230 fused C-terminally with a 3xFLAG-C-tag (endogenous, parasite line iGP2^230-tag) (Plasmodium falciparum (endogenous in …, UniProt P68874 21-3135)); test: affinity purification with mass spectrometry; conditions: partners not purified
T4 construct: not shown: 3xFLAG, C-terminal, kept

| Binder | binding result [2] | binding result [3] | binding result [4] | also measured |
| --- | --- | --- | --- | --- |
| 18F25 Fab (Fab, V domains shown, also called mAb 18F25; 18F25.1; source: Freestyle 293-F or 293-S cells, transfected, purified (KappaSelect, MonoS cation exchange)) VH: QVQLQQSGAELARPGASVKLSCKASGYTFTNYWMQWVKQRPGQGLEWFGAIYPGDGDTRYTQKFKGKATLTADKSSSTAYMQLSSLASEDSAVYYCARSLYLGAMDYWGQGTSVTVSS VL: DIVMTQSHKFMSTSVGDRVSITCKASQDVTNDVAWYQQKPGQSPKLLIYSASYRYTGVPDRFTGSGSGTDFIFTISSVQAEDLAVYYCQQHYSAPPTFGGGTKLEIK |  |  |  | Kd [1]: 1.8 nM |
| 2A2 Fab (Fab, V domains shown, also called mAb 2A2; 2A2.2a; source: Freestyle 293-F or 293-S cells, transfected, purified (KappaSelect, MonoS cation exchange)) VH: EVQLQQSGPELEKPGASVKISCKASGYSITDYNMNWVKLSNGKSLEWIGNIDPSHGGTTYNQKFKGKATLTVDKSSSTAYMQLKSLTSEDSAVYHCARSTLYGNSAMDCWGQGTSVTVSS VL: SIVMTQTPKFLLVPAGDRVTITCKASQSVNNDVTWYQQKPGQSPKLLIYYASNRYTGVPDRFTGSGYGTDFTFTISTVQAEDLAVYFCQQDYSSPLTFGAGTKLEL | binds |  |  |  |
| RUPA-71 Fab (Fab, V domains shown, source: Freestyle 293-F or 293-S cells, transfected, purified (KappaSelect, MonoS cation exchange)) VH: EEQLVESGGGLVKPGRSLRLSCSASGFTLGDYAVTWFRQASGKEPEWVGVIRTKDEGGTTEYAASVKGRFSILRDDSKSIAHLQMNSLKIEDTAVYYCTRNGLRWYDSSGPRGWAFDIWGPGTLVVVSS VL: EIVMTQSPATVSVSPGERATLSCRTSQSVSNKLAWYQQKPGQAPRLLIYGASTRATGIPARFSGSGSGTQFTLTISSLQSEDFAVYYCQQYNNWPPWTFGRGTKVEIK |  | binds | binds |  |
| RUPA-47 Fab (Fab, V domains shown, source: Freestyle 293-F or 293-S cells, transfected, purified (KappaSelect, MonoS cation exchange)) VH: QVQLVQSGAEVKKPGASVKLSCTASGYTFTNFGITWVRQAPGQGLEWMAWISVYSGDTDYAQRFQGRVTMTTDTSTRTAYMEMRSLSFDDTAVYYCVRGGRDSPILGGYWGQGTLVTVSS VL: EIVLTQSPGTLSLSPGERVTLSCRASQSVRSMYLAWYQQKPGQAPRLLIHGASIRATGIPDRFSGSGSGTDFTLTISRLEREDFAVYYCHQYGSSPLTFGGGTKVESK | no binding (tested: tenfold molar excess Fab) | binds |  |  |
| RUPA-44 Fab (Fab, V domains shown, source: Freestyle 293-F or 293-S cells, transfected, purified (KappaSelect, MonoS cation exchange)) VH: QLQLQESGPGLVKPSETLSLTCTVSGGSISRSPYYWGWIRQPPGKGLEWFGSIYNNGSTYYNPPLKSRLTISVDTSKNQFSLKLSSVTAADTAVYYCARHGGSTGMKVVVIAPPDYWGQGTLVTVSS VL: DIQMTQSPATLSASVGDRVTITCRASQSISSWLAWYQQKPGEAPKLLIYKASSLQSGVPSRFSGSGSGTKFSLTISSLQPDDFATFYCQQYHSYPYTFGQGTKLEIK |  |  | binds |  |
| Pfs48/45 (endogenous) (natural protein) NNDFCKPSSLNSEISGFIGYKCNFSNEGVHNLKPDMRERRSIFCTIHSYFIYDKIRLIIPKKSSSPEFKILPEKCFQKVYTDYENRVETDISELGLIEYEIEENDTNPNYNERTITISPFSPKDIEFFCFCDNTEKVISSIEGRSAMVHVRVLKYPHNILFTNLTNDLFTYLPKTYNESNFVSNVLEVELNDGELFVLACELINKKCFQEGKEKALYKSNKIIYHKNLTIFKAPFYVTSKDVNTECTCKFKNNNYKIVLKPKYEKKVIHGCNFSSNVSSKHTFTDSLDISLVDDSAHISCNVHLSEPKYNHLVGLNCPGDIIPDCFFQVYQPESEELEPSNIVYLDSQINIGDIEYYEDAEGDDKIKLFGIVGSIPKTTSFTCICKKDKKSAYMTVTID |  |  |  | binding result [5]: binds |
